We go through 32 variants from the RNAGym collection of RNA variant scans (doi:10.7554/elife.80360).

B1: HDV Ribozyme (parent)
chain: GGCCGGCAUGGUCCCAGCCUCCUCGCUGGCGCCGGCUGGGCAACAUUCCGAGGGGACCGUCCCCUCGGUAAUGGCGAAUGGGACCCA

In this data set the parent is B1. As to the kind of experiment: self-cleavage, relative activity (ratio to wild type); higher = more cleavage; co-transcriptional.
Turning to GGCCGGCAUGGUCCCAGCCUCGUCGCUGGCGCCGGCUGGGCAACAUUCCGAGGGGACCGACCCCUCGGUAAUGGCGAAUGGGACCCA [C22G U60A], the self-cleavage worked out at 0.141.
For the variant GGCCGGCAUGGUCCCAGCCUCGUCGCUGGCGCCGGCUGGGCAACAUUCCUAGGGGACCGUCCCCUCGGUAAUGGCGAAUGGGACCCA [C22G G50U], the self-cleavage came to 0.0297.
The figure for GGCCGGCAUGGUCCCAGCCUCUUCGCUGGCGCAGGCUGGGCAACAUUCCGAGGGGACCGUCCCCUCGGUAAUGGCGAAUGGGACCCA [C22U C33A] is 0.0692; for GGCCGGCAUGGUCCCAGCCUCGUCGCUGGCGCCGGCUGGGCAACAUUCCGAGGAGACCGUCCCCUCGGUAAUGGCGAAUGGGACCCA [C22G G54A] it is 0.101.
With GGCCGGCAUGGUCCCAGCCUCGUCGCUGGCGCCGGCUGGGCAACAUUCCGAGGCGACCGUCCCCUCGGUAAUGGCGAAUGGGACCCA [C22G G54C] the figure was 0.0277.
With GGCCGGCAUGGUCCCAGCCUCUUCGCUGGCGCCGGCUGGGCAACAUUCCGAGGGGACCGUCCCCUCGGUAAUGGCGAAUGGGUCCCA [C22U A83U] the figure was 0.199.
For the variant GGCCGGCAUGGUCCCAGCCUCUUCGCUGGCGCCGGCUGGGCAACAUUCCGAGGGGACCGUCCCCUCGGUAAUGGCGAAUGGGGCCCA [C22U A83G], the self-cleavage turned out to be 0.12.
With GGCCGGCAUGGUCCCAGCCUCUUCGCUGGCGCCGGCUGGGCAACAUUCCGAGGGGACCGUCCCCUCGGUUAUGGCGAAUGGGACCCA [C22U A70U] the figure was 0.587.
The figure for GGCCGGCAUGGUCCCAGCCUCUUCGCUGGCGCCGGCUGGGCAACAUUCCGAGGGGACCGUCCCCUCGGUGAUGGCGAAUGGGACCCA [C22U A70G] is 0.577.
The figure for GGCCGGCAUGGUCCCAGCCUCGUCGCUGGCGCCGGCUGGGCAACAUUCCGAGAGGACCGUCCCCUCGGUAAUGGCGAAUGGGACCCA [C22G G53A] is 0.0779; for GGCCGGCAUGGUCCCAGCCUCGUCGCUGGCGCCGGCUGGGCAACAUUCCGAGCGGACCGUCCCCUCGGUAAUGGCGAAUGGGACCCA [C22G G53C] it is 0; for GGCCGGCAUGGUCCCAGCCUCGUCGCUGGCGCCGGCUGGGCAACAUUCCGAGGGGACCGUCCCCUCGGUAAUGGCGAAUGGAACCCA [C22G G82A] it is 0.0723.
Consider GGCCGGCAUGGUCCCAGCCUCGUCGCUGGCGCCGGCUGGGCAACAUUCCGAGGGGACCGUCCCCUCGGUAAUGGCGAAUGGUACCCA [C22G G82U], for which the self-cleavage was found to be 0.0652.
For GGCCGGCAUGGUCCCAGCCUCGUCGCUGGCGCCGGCUGGGCAACAUUCCGAGGGGACCGUCCCCUCGGUAAAGGCGAAUGGGACCCA [C22G U72A], the self-cleavage stood at 0.196.
Consider GGCCGGCAUGGUCCCAGCCUCGUCGCUGGCGCCGGCUGGGCAACAUUCCGAGGGGACCGUCCCCUCGGUAAGGGCGAAUGGGACCCA [C22G U72G], for which the self-cleavage worked out at 0.0554.
Take GGCCGGCAUGGUCCCAGCCUCUUCGCUGGCGCCGGCUGGGCAACAUUCCGAGGGGACCGUCCCCUCGGUAAUGGCGGAUGGGACCCA [C22U A77G]: the self-cleavage was determined as 0.369.
With GGCCGGCAUGGUCCCAGCCUCUUCGCUGGCGCCGGCUGGGCAACAUUCCGAGGGGACCGUCCCCUCGGUAAUGGCGCAUGGGACCCA [C22U A77C] the figure was 0.141; with GGCCGGCAUGGUCCCAGCCUCGUCGCUGGCGCCGGCUGGGCAACAUUCCGAGGGGACCGUCCCCUCGGUAAUGACGAAUGGGACCCA [C22G G74A], 0.0241.
With GGCCGGCAUGGUCCCAGCCUCGUCGCUGGCGCCGGCUGGGCAACAUUCCGAGGGGACCGUCCCCUCGGUAAUGUCGAAUGGGACCCA [C22G G74U] the figure was 0.0841.
With GGCCGGCAUGGUCCCAGCCUCGUCGCUGGCGCCGGCUGGGCAACAUUCCGAGGGGACCGUCCCCUCGGUAAUGCCGAAUGGGACCCA [C22G G74C] the figure was 0; with GGCCGGCAUGGUCCCAGCCUCUUGGCUGGCGCCGGCUGGGCAACAUUCCGAGGGGACCGUCCCCUCGGUAAUGGCGAAUGGGACCCA [C22U C24G], 0.0563; with GGCCGGCAUGGUCCCAGCCUCUUCGCUGGCGCCGGCUGGGAAACAUUCCGAGGGGACCGUCCCCUCGGUAAUGGCGAAUGGGACCCA [C22U C41A], 0.674.
Consider GGCCGGCAUGGUCCCAGCCUCGUCGCUGGCGCCGGCUGGGCAACAUUCCGACGGGACCGUCCCCUCGGUAAUGGCGAAUGGGACCCA [C22G G52C], for which the self-cleavage amounted to 0.0652.
With GGCCGGCAUGGUCCCAGCCUCGUCGCUGGCGCCGGCUGGGCAACAUUCCGAGGGGACCGUCCCCUCGGUAAUGGCGAAUUGGACCCA [C22G G80U] the figure was 0.142; with GGCCGGCAUGGUCCCAGCCUCUUCGCUGGCGGCGGCUGGGCAACAUUCCGAGGGGACCGUCCCCUCGGUAAUGGCGAAUGGGACCCA [C22U C32G], 0.0941; with GGCCGGCAUGGUCCCAGCCUCGUCGCUGGCGCCGGCUGGGCAACAUUCCGAGGGUACCGUCCCCUCGGUAAUGGCGAAUGGGACCCA [C22G G55U], 0.0382.
With GGCCGGCAUGGUCCCAGCCUCGUCGCUGGCGCCGGCUGGGCAACAUUCCGAGGGAACCGUCCCCUCGGUAAUGGCGAAUGGGACCCA [C22G G55A] the figure was 0.0723; with GGCCGGCAUGGUCCCAGCCUCUUCGCUGGGGCCGGCUGGGCAACAUUCCGAGGGGACCGUCCCCUCGGUAAUGGCGAAUGGGACCCA [C22U C30G], 0.126; with GGCCGGCAUGGUCCCAGCCUCGCCGCUGGCGCCGGCUGGGCAACAUUCCGAGGGGACCGUCCCCUCGGUAAUGGCGAAUGGGACCCA [C22G U23C], 0.
As for GGCCGGCAUGGUCCCAGCCUCGUCGCUGGCGCCGGCUGGUCAACAUUCCGAGGGGACCGUCCCCUCGGUAAUGGCGAAUGGGACCCA [C22G G40U], the self-cleavage came out at 0.104.
With GGCCGGCAUGGUCCCAGCCUCUUCGCUGGCGCCGGCUGGGCACCAUUCCGAGGGGACCGUCCCCUCGGUAAUGGCGAAUGGGACCCA [C22U A43C] the figure was 0.0282; with GGCCGGCAUGGUCCCAGCCUCGUCGCUGGCGCCGGCUGGGCAACACUCCGAGGGGACCGUCCCCUCGGUAAUGGCGAAUGGGACCCA [C22G U46C], 0.116.
